Data taken from US6713042B2, “Ascorbic acid analogs for metalloradiopharmaceuticals” (Bristol-Myers Squibb Pharma Company, priority 2001, dated 2004).

Legend:
[1] = Solution stability of the 90Y-labeled conjugate in ascorbic acid buffer, RCP by HPLC (Method 1); type: physicochemical; details: for RCP (radiochemical purity): 0.1 M ascorbic acid buffer pH 5.0
Method: (§1) The integrity of a radiopharmaceutical is measured by the radiochemical purity (RCP) of the radiolabeled compound using ITLC or more preferably HPLC. The advantage of using HPLC is that radio-impurities caused by radiolytic degradation can be separated from the radiopharmaceutical under optimized chromatographic conditions. […] The radiopharmaceutical compositions of this invention are effective in maintaining the long-term stability of samples that have been frozen, thawed, and re-tested up to 5 days post-labeling.
(§2) The initial RCP of a radiopharmaceutical is largely dependent on radiolabeling conditions such as pH, heating temperature and time. Once a radiopharmaceutical is prepared in high yield, the ability of an antioxidant to stabilize a radiopharmaceutical composition is measured by the RCP change over a certain period of time.
as §1, with “periodically for” for “up to”, “days.” for “days post-labeling.”
as §2, with “stability” for “ability”, “the” for “an antioxidant to stabilize a”, “change of the radiopharmaceutical” for “change”
Analytical Methods. HPLC method 1 used a HP-1100 HPLC system with a UV/visible detector (Δ=220 nm), an IN-US radio-detector, and a Zorbax C18 column (4.6 mm×250 mm, 80 A pore size). The flow rate was 1 mL/min with the mobile phase starting with 92% solvent A (0.025 M ammonium acetate buffer, pH 6.8) and 8% solvent B (acetonitrile) to 90% solvent A and […] at 18 min, followed by an isocratic wash using 40% of solvent A and 60% solvent B from 19 to 25 min.
(2S)-2-[({2,6-Dimethyl-4-[3-(N-{2-[3-sulfo-2-(3-sulfo-2-{2-[1,4,7,10-tetraaza-4,7,10-tris(carboxymethyl) cyclododecyl]acetylamino}propyl)propyl]ethyl}carbamoyl)-propoxy]phenyl}sulfonyl)amino]-3-({7-[(imidazol-2-ylamino)methyl]-1-methyl-4-oxo(3-hydroquinolyl)}-carbonylamino)propanoic acid trifluoroacetate was prepared as disclosed in U.S. patent application Ser. No. 09/456,300 and was subsequently dissolved in 0.1 M AA buffer (pH 5.0) to give a concentration of 100 μg/mL. The resulting solution was immediately degassed under vacuum for another 1-2 min. To a clean sealed 5 mL vial was added 5.0 mL of 0.1 M ascorbic acid buffer (pH 5.0) containing 500 μg of (2S)-2-[({2,6-Dimethyl-4-[3-(N-{2-[3-sulfo-2-(3-sulfo-2-{2-[1,4,7,10-tetraaza-4,7,10-tris(carboxymethyl) cyclododecyl]acetylamino}propyl) propyl]ethyl}carbamoyl)propoxy]phenyl}sulfonyl)amino]-3-({7-[(imidazol-2-ylamino)methyl]-1-methyl-4-oxo(3-hydroquinolyl)}carbonylamino)propanoic acid trifluoroacetate. The solution was degassed again under vacuum. Upon addition of ˜75 μL of ^90YCl3 solution (101.5 mCi) in 0.05 N HCl, the reaction mixture was heated at 95° C. for 30 min. After cooling to room temperature, a sample of the resulting solution was diluted 50-fold with saline containing sodium gentisate (10 mg/mL), and was then analyzed by HPLC (Method 1, injection volume 5 μL). The resulting mixture was then kept in a dry-ice box (−78° C.) for 5 days. Samples were analyzed at t=0 (RCP=98.5%), 24 h (RCP=98.4%), 68 h (RCP=98.0%), and 120 h (RCP=98.8%). The retention time was 14.8 min.

[2] = Solution stability of the 111In-labeled conjugate in ascorbic acid buffer, RCP by HPLC (Method 3); type: physicochemical; details: for RCP (radiochemical purity): 0.1 M ascorbic acid buffer pH 6.0
Method: The integrity of a radiopharmaceutical is measured by the radiochemical purity (RCP) of the radiolabeled compound using ITLC or more preferably HPLC. The advantage of using HPLC is that radio-impurities caused by radiolytic degradation can be separated from the radiopharmaceutical under optimized chromatographic conditions. […] The radiopharmaceutical compositions of this invention are effective in maintaining the long-term stability of samples that have been frozen, thawed, and re-tested up to 5 days post-labeling. The initial RCP of a radiopharmaceutical is largely dependent on radiolabeling conditions such as pH, heating temperature and time. Once a radiopharmaceutical is prepared in high yield, the ability of an antioxidant to stabilize a radiopharmaceutical composition is measured by the RCP change over a certain period of time. The integrity of a radiopharmaceutical is measured by the radiochemical purity (RCP) of the radiolabeled compound using ITLC or more preferably HPLC. The advantage of using HPLC is that radio-impurities caused by radiolytic degradation can be separated from the radiopharmaceutical under optimized chromatographic conditions. […] The radiopharmaceutical compositions of this invention are effective in maintaining the long-term stability of samples that have been frozen, thawed, and re-tested periodically for 5 days. The initial RCP of a radiopharmaceutical is largely dependent on radiolabeling conditions such as pH, heating temperature and time. Once a radiopharmaceutical is prepared in high yield, the stability of the radiopharmaceutical composition is measured by the RCP change of the radiopharmaceutical over a certain period of time. HPLC method 3 used a HP-1100 HPLC system with a UV/visible detector (k=220 nm), an IN-US radio-detector, and a Zorbax C18 column (4.6 mm×250 mm, 80 A pore size). […] After cooling to room temperature, a sample of the resulting solution was then analyzed by HPLC (Method 3, injection volume=10 μL). […] Samples were analyzed at t 0 (RCP 98.2%) and 24 h (RCP=97.6%). […]

[3] = 5 mL AA solution containing 100 mg AA, pH=5.0

^90Y-(2S)-2-[({2,6-Dimethyl-4-[3-(N-{2-[3-sulfo-2-(3-sulfo-^2-{^2-[1,4,7,10-tetraaza-4,7,10-tris(carboxymethyl) cyclododecyl]acetylamino}--propyl)propyl]ethyl}carbamoyl)-propoxy]phenyl}sulfonyl)amino]-^3-({^7-[(imidazol-2-ylamino)methyl]-1-methyl-4-oxo(3-hydroquinolyl)}-carbonylamino)propanoic acid trifluoroacetate [Example 2]
RCP while stable over at least 5 days [1, 3]: > 96% | remains stable (time) [1, 3]: at least 5 days | RCP (radiochemical purity) ([1]; 24 h, kept in dry-ice box (-78° C.)): 98.4% | RCP (radiochemical purity) ([1]; 68 h, kept in dry-ice box (-78° C.)): 98.0% | RCP (radiochemical purity) ([1]; 120 h, kept in dry-ice box (-78° C.)): 98.8% | RCP (radiochemical purity) ([1]; t=0, 100 mCi 90Y): 98.5%

^111In-(2S)-2-[({2,6-Dimethyl-4-[3-(N-{2-[3-sulfo-2-(3-sulfo-2-{2-[1,4,7,10-tetraaza-4,7,10-tris(carboxymethyl) cyclododecyl]acetylamino}--propyl)propyl]ethyl}carbamoyl)-propoxy]phenyl}sulfonyl)amino]-3-({7-[(imidazol-2-ylamino)methyl]-1-methyl-4-oxo(3-hydroquinolyl)}-carbonylamino)propanoic acid trifluoroacetate [Example 3]
remains stable in solution (time) ([2]; 0.1 M ascorbic acid buffer pH 6.0, room temperature): at least 24 hours | RCP (radiochemical purity) ([2]; 24 h, kept at room temperature): 97.6% | RCP (radiochemical purity) ([2]; t 0, 2.8 mCi 111In): 98.2%
